Patent US20180251503A1 (Memorial Sloan Kettering, published 2018)

B1: GD2xCD3 bispecific fusion protein (scFv5F11-(G4S)3-scFvhOKT3, Y-BT, without dimerization component) (bispecific antibody)
scFv: QVQLQQSGPELVKPGASVKISCKTSGYKFTEYTMHWVKQSHGKCLEWIGGINPNNGGTNYNQKFKGKATLTVDKSSSTAYMELRSLTSEDSAVYYCARDTTVPYAYWGQGTTVTVSSGGGGSGGGGSGGGGSDIELTQSPAIMSASPGEKVTMTCSASSSISYMHWYQQKPGTSPKRWIYDTSKLASGVPARFSGSGSGTSYSLTISSMEAEDAATYYCHQRSSYPLTFGCGTKLEIKRASTKGPGGGGSGGGGSGGGGSQVQLVQSGGGVVQPGRSLRLSCKASGYTFTRYTMHWVRQAPGKGLEWIGYINPSRGYTNYNQKFKDRFTISRDNSKNTAFLQMDSLRPEDTGVYFCARYYDDHYCLDYWGQGTPVTVSSGGGGSGGGGSGGGGSDIQMTQSPSSLSASVGDRVTITCSASSSVSYMNWYQQTPGKAPKRWIYDTSKLASGVPSRFSGSGSGTDYTFTISSLQPEDIATYYCQQWSSNPFTFGQGTKLQITRHHHHHH
B2: Humanized OKT3 IgG (parental humanized OKT3 antibody) (antibody, V domains shown)
VH: QVQLVQSGGGVVQPGRSLRLSCKASGYTFTRYTMHWVRQAPGKGLEWIGYINPSRGYTNYNQKFKDRFTISRDNSKNTAFLQMDSLRPEDTGVYFCARYYDDHYCLDYWGQGTPVTVSS
VL: DIQMTQSPSSLSASVGDRVTITCSASSSVSYMNWYQQTPGKAPKRWIYDTSKLASGVPSRFSGSGSGTDYTFTISSLQPEDIATYYCQQWSSNPFTFGQGTKLQITR
B3: GD2xCD3-HDD bispecific fusion protein (scFv5F11-scFvhOKT3 with HNF-1alpha dimerization component, Y-BT-HDD) (bispecific antibody)
scFv: QVQLQQSGPELVKPGASVKISCKTSGYKFTEYTMHWVKQSHGKCLEWIGGINPNNGGTNYNQKFKGKATLTVDKSSSTAYMELRSLTSEDSAVYYCARDTTVPYAYWGQGTTVTVSSGGGGSGGGGSGGGGSDIELTQSPAIMSASPGEKVTMTCSASSSISYMHWYQQKPGTSPKRWIYDTSKLASGVPARFSGSGSGTSYSLTISSMEAEDAATYYCHQRSSYPLTFGCGTKLEIKRASTKGPGGGGSGGGGSGGGGSQVQLVQSGGGVVQPGRSLRLSCKASGYTFTRYTMHWVRQAPGKGLEWIGYINPSRGYTNYNQKFKDRFTISRDNSKNTAFLQMDSLRPEDTGVYFCARYYDDHYCLDYWGQGTPVTVSSGGGGSGGGGSGGGGSDIQMTQSPSSLSASVGDRVTITCSASSSVSYMNWYQQTPGKAPKRWIYDTSKLASGVPSRFSGSGSGTDYTFTISSLQPEDIATYYCQQWSSNPFTFGQGTKLQITRTPLGDTTHTSGMVSKLSQLQTELLAALLESGLSKEALIQALGEGSGGAPHHHHHH

target: CD3 on T cells (Jurkat cells; purified human T cells) (human, UniProt P07766 23-207; P09693 23-182; P04234 22-171); test: cell-based or functional assay

First: B1
Second: B2
The “IFN-γ release from human T cells (no tumor cells), ELISA” value of the first is 130-fold lower: 1.7 pg/mL for the first, 228 pg/mL for the second.

With B3 the “IFN-γ release from human T cells (no tumor cells), ELISA” value was 2.1 pg/mL.

Going from B1 to B2, the “IL-2 release from human T cells (no tumor cells), ELISA” value rises from 2 pg/mL to 36.5 pg/mL (18-fold).

With B3 the “IL-2 release from human T cells (no tumor cells), ELISA” value was 2.2 pg/mL.

Going from B1 to B2, the “IL-10 release from human T cells (no tumor cells), ELISA” value rises from 3.6 pg/mL to 29.8 pg/mL (8.3-fold).

For B3, the “IL-10 release from human T cells (no tumor cells), ELISA” value was 2.1 pg/mL.

Compared with B1, B2 is 11-fold higher in “TNF-α release from human T cells (no tumor cells), ELISA” value: 7.9 pg/mL for the first, 86.7 pg/mL for the second.

For B3, the “TNF-α release from human T cells (no tumor cells), ELISA” value was 7.6 pg/mL.
